According to paper PMC4830470 (Nature, 2015):

Molecular target: the molecule itself
Experiment: SEC

B1: human class A J-protein DNAJA2 (JA2), wild type (natural protein)
chain: not shown
- stoichiometry N: 2
